Test results reported in article PMC11730611.

T1: extROQ (Roquin, murine/human) (Mus musculus, UniProt Q4VGL6 89-404)
T1 sequence: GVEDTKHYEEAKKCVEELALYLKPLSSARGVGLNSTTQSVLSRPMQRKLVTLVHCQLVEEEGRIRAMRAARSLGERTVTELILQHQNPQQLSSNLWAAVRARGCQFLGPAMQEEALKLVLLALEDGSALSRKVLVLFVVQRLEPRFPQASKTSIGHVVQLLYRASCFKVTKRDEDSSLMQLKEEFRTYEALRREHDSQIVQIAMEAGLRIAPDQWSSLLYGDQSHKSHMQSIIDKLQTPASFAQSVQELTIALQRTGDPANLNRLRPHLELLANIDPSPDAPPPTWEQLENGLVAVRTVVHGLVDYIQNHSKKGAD

T2: coreROQ (Roquin, murine/human) (Mus musculus, UniProt Q4VGL6 171-326)
T2 sequence: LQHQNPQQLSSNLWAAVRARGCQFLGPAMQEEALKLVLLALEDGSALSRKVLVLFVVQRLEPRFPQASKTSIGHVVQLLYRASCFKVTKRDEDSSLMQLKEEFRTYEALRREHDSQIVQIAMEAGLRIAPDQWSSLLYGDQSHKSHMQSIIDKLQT


Experiments:
Experiment in all cases: EMSA
[1] = target: T1, extROQ (Roquin, murine/human)
[2] = target: T2, coreROQ (Roquin, murine/human)
[3] = target: T2, coreROQ (Roquin, murine/human); remark: listed apart in the source

Row | Binder | Kd [1] [nM] | Kd [2] [nM] | binding result [3]
1 | GCCUGCCAGUCCACACCGUUCUAGGUGCUGGACCCUGCUGGCUCUGGGC (structured_RNA) [MM 3'bulge] | 525 ± 60.1 | 241 ± 15.6 | –
2 | GCCCUGUGCCGUUUUAGGCGCUCCUGGGC (structured_RNA) [DK (dolphin/killer whale Ox40 ADE)] | 847 ± 77.4 | 480 ± 24.7 | –
3 | GGUGUGUUUAUUUCAGGAGACA (structured_RNA) [LI (lizard putative ADE)] | 1840 ± 403 | – | –
4 | GUCCCCUCUGCGCCGUUUUAGGCGUUUCUGGGCUGGC (structured_RNA) [EL (elephant Ox40 ADE)] | 778 ± 157 | 534 ± 366 | –
5 | GCCUGUAAGUACCCUCCACACCGUUCUAGGUGCUGGGCUUACUCUGGGC (structured_RNA) [dstem1] | 1040 ± 139 | 381 ± 94.8 | –
6 | GCCUGUAAGUACCCUCUACACCGUUCUAGGUGCUAGGCUUACUCUGGGC (structured_RNA) [dstem2] | 978 ± 76.9 | 451 ± 46.9 | –
7 | GCCUGCCAGUACCCUCCACACCGUUCUAGGUGCUGGGCUGGCUCUGGGC (structured_RNA) [MM (murine Ox40 ADE wt)] | 323 ± 139 | 308 ± 57.2 | –
8 | GGCGAACAGUGCAGCGUUCUAGCUGCCCUUCGCU (structured_RNA) [HS low pur.] | 673 ± 65.2 | 432 ± 62.6 | –
9 | GCACCCUCCCACACCGUUUUAGGUGUUCUGGGUG (structured_RNA) [HE (hedgehog Ox40 ADE)] | 642 ± 119 | 318 ± 17.2 | –
10 | GCCUGCCAGUCCACACCGUUCUAGGUGCUGGGCUGGCUCUGGGC (structured_RNA) [delta-bulge] | 479 ± 188 | 299 ± 41.6 | –
11 | GGCCAUCUGCACCGUUCUAGGUGCCGAACUGGCU (structured_RNA) [HS 3'bulge] | 475 ± 62.6 | 293 ± 149 | –
12 | GCCUGCCAGUACCCUCCAUAAAGUUCUAUUUACUGGGCUGGCUCUGGGC (structured_RNA) [dapical] | 488 ± 373 | – | no binding
13 | GCCGAGCCUGAGUUUAUACAGUCCUUUGUGC (structured_RNA) [CH (chicken putative ADE)] | 4460 ± 717 | – | –
14 | GGCCAGGACGCAGUAUUACUCUCGGGUC (structured_RNA) [OP (opossum ADE-like)] | – | – | no binding
15 | GGCCAACUCUGCACCGUUCUAGGUGCCGAUGGCU (structured_RNA) [HS (human Ox40 ADE wt)] | 386 ± 63.7 | 295 ± 29.6 | –
